Experimental findings from paper PMC3139607, “Broad-Spectrum Inhibition of HIV-1 by a Monoclonal Antibody Directed against a gp120-Induced Epitope of CD4” (PLoS ONE, 2011) are described below.

The target of this assay is T1, MAb DB81 (Mus musculus).
T1 construct: IgH V1-39*01, D2-2*01, J3*01; IgK V6-17*01, J2*01; Whole mouse IgG1 kappa; only the variable domains are printed; The first and last residues of each V domain lie under the PCR primers; also called C9 (parent hybridoma well); anti-human CD4-HIV-1-gp120 complex DB81 monoclonal antibody; source: mouse hybridoma (spleen cells of immunized Balb/c mice x P3X63Ag8.653 myeloma); purified from cell …
T1 sequence (VH, as listed by the source, chain 1 of 2): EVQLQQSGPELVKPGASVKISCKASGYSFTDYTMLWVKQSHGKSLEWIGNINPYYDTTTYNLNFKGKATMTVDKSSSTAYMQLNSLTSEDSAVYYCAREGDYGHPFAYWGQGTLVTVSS
T1 sequence (VL, as listed by the source, chain 2 of 2): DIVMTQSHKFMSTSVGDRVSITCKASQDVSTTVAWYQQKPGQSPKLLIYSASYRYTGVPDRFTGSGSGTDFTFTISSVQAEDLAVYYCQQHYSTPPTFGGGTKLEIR
Put plainly: SPR; MAb DB81 bound to the chip; synthetic 19-mer CD4 peptides as analytes (Figure 5). The conditions noted are these: both partners purified.

B1: human CD4-derived 19-mer peptide GTWTCTVLQNQKKVEFKID (peptide)
peptide: GTWTCTVLQNQKKVEFKID
notes: aa; 180-198 of membrane CD4 from Hominidae (Homo, P. troglodytes); also called human peptide; source: synthetic peptide (solid-phase F-moc, RP-HPLC purified)
Turning to B1, the binding result is given as “binds”.
